In article PMC5645029 (Journal of medicinal chemistry, 2017):
Non-standard residues stand in square brackets, D forms with d.

What was measured:
[1] = molecular target: mouse melanocortin-4 receptor (mouse) (UniProt P56450)
[2] = molecular target: mouse melanocortin-3 receptor (mouse) (UniProt P33033)
[3] = molecular target: mouse melanocortin-1 receptor (mouse) (UniProt Q01727)
Chain of mouse melanocortin-1 receptor (mouse) (Q01727 whole entry): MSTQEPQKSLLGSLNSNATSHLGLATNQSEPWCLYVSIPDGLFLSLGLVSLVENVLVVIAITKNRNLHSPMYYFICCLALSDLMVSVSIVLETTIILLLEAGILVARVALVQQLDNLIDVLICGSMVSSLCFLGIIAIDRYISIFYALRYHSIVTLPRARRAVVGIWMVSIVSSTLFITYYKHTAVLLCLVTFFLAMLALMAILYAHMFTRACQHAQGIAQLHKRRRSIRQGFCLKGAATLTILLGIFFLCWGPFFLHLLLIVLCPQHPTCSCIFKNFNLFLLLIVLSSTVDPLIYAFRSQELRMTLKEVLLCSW

Chain of mouse melanocortin-3 receptor (mouse) (P33033 whole entry): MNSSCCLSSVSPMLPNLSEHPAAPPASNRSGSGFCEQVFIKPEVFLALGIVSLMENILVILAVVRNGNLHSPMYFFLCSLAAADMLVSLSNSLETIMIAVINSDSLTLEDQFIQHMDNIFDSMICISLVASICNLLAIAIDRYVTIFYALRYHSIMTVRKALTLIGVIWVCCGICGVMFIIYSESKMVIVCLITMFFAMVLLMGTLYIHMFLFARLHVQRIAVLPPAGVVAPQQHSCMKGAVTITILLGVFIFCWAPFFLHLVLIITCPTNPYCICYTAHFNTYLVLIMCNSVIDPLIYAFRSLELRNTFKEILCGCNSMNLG
Chain of mouse melanocortin-4 receptor (mouse) (P56450 whole entry): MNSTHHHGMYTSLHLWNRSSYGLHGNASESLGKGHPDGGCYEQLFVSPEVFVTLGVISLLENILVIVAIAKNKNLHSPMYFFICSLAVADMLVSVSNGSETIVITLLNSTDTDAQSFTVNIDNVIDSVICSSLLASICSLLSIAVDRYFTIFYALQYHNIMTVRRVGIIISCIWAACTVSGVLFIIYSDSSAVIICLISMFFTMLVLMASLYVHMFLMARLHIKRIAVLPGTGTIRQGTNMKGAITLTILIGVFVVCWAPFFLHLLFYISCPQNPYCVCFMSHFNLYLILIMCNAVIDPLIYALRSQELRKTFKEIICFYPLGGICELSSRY

| Molecule | agonist EC50 (cAMP AlphaScreen, HEK293 cells stably expressing the receptor) [1] | agonist EC50 (cAMP AlphaScreen, HEK293 cells stably expressing the receptor) [2] | agonist EC50 (cAMP AlphaScreen, HEK293 cells stably expressing the receptor) [3] |
| --- | --- | --- | --- |
| c[Pro-Arg-Phe-Phe-Dap-Ala-Phe-DPro] (peptide) | > 100 µM | > 100 µM | – |
| c[Pro-Arg-Phe-Phe-Abu-Ala-Phe-DPro] (peptide) | > 100 µM | > 100 µM | > 100 µM |
| c[Pro-Arg-Phe-Phe-DDap-Ala-Phe-DPro] (peptide) | > 100 µM | > 100 µM | > 100 µM |
| cyclo(PRFFVAF[dP]) [c[Pro-Arg-Phe-Phe-Val-Ala-Phe-DPro]] | > 100 µM | > 100 µM | – |
| cyclo(PRFFNKF[dP]) (SMILES N=C(N)NCCC[C@@H]1NC(=O)[C@@H]2CCCN2C(=O)[C@H]2CCCN2C(=O)[C@H](Cc2ccccc2)NC(=O)[C@H](CCCCN)NC(=O)[C@H](CC(N)=O)NC(=O)[C@H](Cc2ccccc2)NC(=O)[C@H](Cc2ccccc2)NC1=O) [c[Pro-Arg-Phe-Phe-Asn-Lys-Phe-DPro]] | > 100 µM | – | – |
| cyclo(PRFFAAF[dP]) [c[Pro-Arg-Phe-Phe-Ala-Ala-Phe-DPro]] | > 100 µM | > 100 µM | > 100 µM |
| cyclo(PRFFNSF[dP]) (SMILES N=C(N)NCCC[C@@H]1NC(=O)[C@@H]2CCCN2C(=O)[C@H]2CCCN2C(=O)[C@H](Cc2ccccc2)NC(=O)[C@H](CO)NC(=O)[C@H](CC(N)=O)NC(=O)[C@H](Cc2ccccc2)NC(=O)[C@H](Cc2ccccc2)NC1=O) [c[Pro-Arg-Phe-Phe-Asn-Ser-Phe-DPro]] | > 100 µM | > 100 µM | > 100 µM |
| cyclo(PRFFNGF[dP]) (SMILES N=C(N)NCCC[C@@H]1NC(=O)[C@@H]2CCCN2C(=O)[C@H]2CCCN2C(=O)[C@H](Cc2ccccc2)NC(=O)CNC(=O)[C@H](CC(N)=O)NC(=O)[C@H](Cc2ccccc2)NC(=O)[C@H](Cc2ccccc2)NC1=O) [c[Pro-Arg-Phe-Phe-Asn-Gly-Phe-DPro]] | > 100 µM | > 100 µM | > 100 µM |
| cyclo(PRFFNAA[dP]) (SMILES C[C@@H]1NC(=O)[C@H](CC(N)=O)NC(=O)[C@H](Cc2ccccc2)NC(=O)[C@H](Cc2ccccc2)NC(=O)[C@H](CCCNC(=N)N)NC(=O)[C@@H]2CCCN2C(=O)[C@H]2CCCN2C(=O)[C@H](C)NC1=O) [c[Pro-Arg-Phe-Phe-Asn-Ala-Ala-DPro]] | > 100 µM | > 100 µM | > 100 µM |
| cyclo(PRFFSAF[dP]) [c[Pro-Arg-Phe-Phe-Ser-Ala-Phe-DPro]] | > 100 µM | > 100 µM | > 100 µM |
| cyclo(PRFFNDF[dP]) (SMILES N=C(N)NCCC[C@@H]1NC(=O)[C@@H]2CCCN2C(=O)[C@H]2CCCN2C(=O)[C@H](Cc2ccccc2)NC(=O)[C@H](CC(=O)O)NC(=O)[C@H](CC(N)=O)NC(=O)[C@H](Cc2ccccc2)NC(=O)[C@H](Cc2ccccc2)NC1=O) [c[Pro-Arg-Phe-Phe-Asn-Asp-Phe-DPro]] | > 100 µM | > 100 µM | – |
